Data published in patent publication US20060263345A1, “Butyrylcholinesterase variant polypeptides with increased catalytic efficiency and methods of use” (priority 2003, published 2006).
Residue numbers refer to the chain shown, from its start. Names may count otherwise. “Also recorded” adds a separate entry of the source. Like-named read-outs stand apart in the source and are kept apart here.

Experiments:
Sprague Dawley rats = experiment: pilot studies, lethal dose of infused cocaine; details: rat, i.v. infusion
Procedure: (§1) Briefly, unilateral/bilateral jugular cannulations were performed under isoflurane anesthesia (max. 20 min) on 350 g male :Sprague Dawley®SD® rats (Harlan Sprague Dawley, Inc.) The animals were allowed to recover for 24 hours before studies commenced. […] One minute later, the cannula was connected to an infusion pump (Harvard Apparatus) and cocaine (HCI salt) was infused at 6 mls/hr (2 mg/kg/min) for 15 minutes corresponding to a total dose equal to 30 mg/kg. The time-to-onset for slight convulsions, strong convulsions and death were recorded. […] In a second series of studies, 0.5 mg/kg of the A328W/Y332M/S287G/F227A variant was administered at various time points after initiation of the 30mglkg cocaine infusion and gross observations recorded.

cocaine toxicity = details: rat, infusion of cocaine at 1 mg/kg/min, catecholamine levels standardized; cited from earlier work
[1] = Km for cocaine hydrolysis by horse butyrylcholinesterase, isotope tracer assay, Lineweaver-Burk plot; type: biochemical; details: 2 hour incubation at 37° C.; x intercept = -1/Km
Description: (§2) At the conclusion of the isotope tracer assay, an aliquot of the reaction mix is acidified in order to take advantage of the solubility difference between the product and the substrate at pH 3.0. […] Prospect, Ill.) while [3H]-cocaine is not.

[2] = read-out: Km for cocaine hydrolysis, previously published, cited from earlier work
[3] = cited from earlier work
[4] = microtiter isotope tracer [3H]-cocaine hydrolysis assay of immobilized butyrylcholinesterase variants; type: biochemical; details: for Relative Activity of butyrylcholinesterase variants (WT = 1) with enhanced cocaine hydrolase activity: relative to wild-type = 1, catalytic efficiency (Vmax/Km), [3H]-cocaine microtiter assay; for increase in cocaine hydrolysis activity relative to butyrylcholinesterase: compared to human butyrylcholinesterase SEQ ID NO: 44, approximate values
Description: as §2
The supernatants isolated from each of the butyrylcholinesterase variant library clones contains variable butyrylcholinesterase enzyme concentrations.
At least three approaches are used to either increase the assay sensitivity or the assay signal.
Km values for (−)-cocaine are determined at 37° C. Vmax and Km values are calculated using Sigma Plot (Jandel Scientific, San Rafael, Calif.). The number of active sites of butyrylcholinesterase is determined by the method of residual activity using echothiopate iodide or diisopropyl fluorophosphates as titrants, as described previously by Masson et al., Biochemistry 36: 2266-2277 (1997). […] Purified human butyrylcholinesterase is used as the standard for the ELISA quantitation assay. The catalytic rate constant, kcat, is calculated by dividing Vmax by the concentration of active sites.

cocaine-induced toxicity = experiment: in vivo cocaine toxicity, cocaine infusion 30 mg/kg in cannulated rats; details: rat; for effect of therapeutic treatment on cocaine-induced toxicity: FIG. 9; for effect of pre-treatment on cocaine-induced toxicity: i.v. 0.1-0.5 mg/kg, 1 minute before cocaine 2 mg/kg/min for 15 minutes, Chi-squared test p<0.001, FIG. 8
Procedure: as §1
The variant was administered at the indicated doses, 1 minute prior to infusion of 30 mg/kg cocaine (2 mg/kg/min for 15 minutes).

COC(=O)[C@H]1[C@@H](OC(=O)c2ccccc2)C[C@@H]2CC[C@H]1N2C [cocaine]
lethal dose of cocaine (Sprague Dawley rats): approximately 25 mg/kg
LD50 (cocaine toxicity): 10 mg/kg
LD90 (cocaine toxicity): 16 mg/kg

horse butyrylcholinesterase
Km [1]: ~37.6 µM
Km ([2]; Gatley 1991): 38 µM
Km ([2]; Xie et al. 1999): 45 ± 5 µM

B1: A328Y (protein, UniProt P06276 29-602, looked up, variant A328Y)
Cholinesterase: EDDIIIATKNGKVRGMNLTVFGGTVTAFLGIPYAQPPLGRLRFKKPQSLTKWSDIWNATKYANSCCQNIDQSFPGFHGSEMWNPNTDLSEDCLYLNVWIPAPKPKNATVLIWIYGGGFQTGTSSLHVYDGKFLARVERVIVVSMNYRVGALGFLALPGNPEAPGNMGLFDQQLALQWVQKNIAAFGGNPKSVTLFGESAGAASVSLHLLSPGSHSLFTRAILQSGSFNAPWAVTSLYEARNRTLNLAKLTGCSRENETEIIKCLRNKDPQEILLNEAFVVPYGTPLSVNFGPTVDGDFLTDMPDILLELGQFKKTQILVGVNKDEGTYFLVYGAPGFSKDNNSIITRKEFQEGLKIFFPGVSEFGKESILFHYTDWVDDQRPENYREALGDVVGDYNFICPALEFTKKFSEWGNNAFFYYFEHRSSKLPWPEWMGVMHGYEIEFVFGLPLERRDNYTKAEEILSRSIVKRWANFAKYGNPNETQNNSTSWPVFKSTEQKYLTLNTESTRIMTKLRAQQCRFWTSFFPKVLEMTGNIDEAEWEWKAGFHRWNNYMMDWKNQFNDYTSKKESCVGL
increase in cocaine hydrolysis activity compared to human butyrylcholinesterase ([3]; Xie et al. 1999): four
cocaine hydrolysis activity (in words) ([3]; recombinantly prepared mutations tested previously): increased cocaine hydrolysis activity

B2: P285S (protein, UniProt P06276 29-602, looked up, variant P285S)
Cholinesterase: B1 Cholinesterase with P285S, Y328A
Relative Activity of butyrylcholinesterase variants (WT = 1) with enhanced cocaine hydrolase activity [4]: 1.9

B3: A328W (protein, UniProt P06276 29-602, looked up, variant A328W)
Cholinesterase: B1 Cholinesterase with Y328W
Relative Activity of butyrylcholinesterase variants (WT = 1) with enhanced cocaine hydrolase activity [4]: 7

B4: A328W/F227A (protein)
chain: B1 Cholinesterase with F227A, Y328W
modifications: Butyrylcholinesterase variant
cocaine hydrolysis activity compared to butyrylcholinesterase (in words) ([4]; compared to human butyrylcholinesterase): enhanced cocaine hydrolase activity
increase in cocaine hydrolysis activity relative to butyrylcholinesterase [4]: sixty-eight
Relative Activity of butyrylcholinesterase variants (WT = 1) with enhanced cocaine hydrolase activity [4]: 68

B5: A328W/Y332M/S287G/F227A (protein)
chain: B1 Cholinesterase with F227A, S287G, Y328W, Y332M
modifications: Butyrylcholinesterase variant
increase in cocaine hydrolysis activity relative to butyrylcholinesterase [4]: one-hundred
effect of therapeutic treatment on cocaine-induced toxicity (cocaine-induced toxicity; 0.5 mg/kg administered at 8 minutes into the 30 mg/kg cocaine infusion (after first slight convulsions)): full protection
effect of therapeutic treatment on cocaine-induced toxicity (cocaine-induced toxicity; 0.5 mg/kg administered at later time points than 8 minutes, 0.5 mg/kg): decreased in ability to protect
effect of therapeutic treatment on cocaine-induced toxicity (cocaine-induced toxicity; 0.5 mg/kg administered at later time points than 8 minutes, listed as AME-359, 0.5 mg/kg): decreased in ability to protect
effect of pre-treatment on cocaine-induced toxicity (cocaine-induced toxicity): decreasing cocaine-toxicity; also recorded: statistically significant protection against cocaine
effect of pre-treatment on cocaine-induced toxicity (cocaine-induced toxicity; listed as AME-359): statistically significant protection against cocaine
time-of-onset of symptoms associated with cocaine-induced toxicity (cocaine-induced toxicity; pre-treatment 1 minute before 30 mg/kg cocaine infusion, FIG. 12): delaying the time-of-onset of symptoms

B6: S287G (protein, UniProt P06276 29-602, looked up, variant S287G)
Cholinesterase: B1 Cholinesterase with S287G, Y328A
Relative Activity of butyrylcholinesterase variants (WT = 1) with enhanced cocaine hydrolase activity [4]: 4.1

B7: P285Q (protein, UniProt P06276 29-602, looked up, variant P285Q)
Cholinesterase: B1 Cholinesterase with P285Q, Y328A
Relative Activity of butyrylcholinesterase variants (WT = 1) with enhanced cocaine hydrolase activity [4]: 2.4
